Reference: patent publication US20240148885A1, “TARGETED BIFUNCTIONAL DEGRADERS” (YALE UNIVERSITY, priority 2021, published 2024)
Where two headings read alike, the source gives them in different places.

Legend:
streptavidin = streptavidin (Streptomyces avidinii, UniProt P22629); assay: ELISA: biotinylated Angiopep-2 binding to streptavidin (FIG. 7)
[1] = tested on: murine brain endothelial cells; details: noncovalently bound streptavidin AF647 cargo, FIG. 8, FIG. 9
astrocytes = assay: Cellular assay: internalization of streptavidin in astrocytes (FIG. 9); assay type: cell-based; details: noncovalently bound cargo
streptavidin AF647 = streptavidin AF647 (Streptomyces avidinii, UniProt P22629); assay: Saturable delivery (uptake) of streptavidin AF647 (FIG. 6); assay type: cell-based; details: increasing concentration of bifunctional molecule, cells not given
streptavidin AF647, sequence (P22629 25-183): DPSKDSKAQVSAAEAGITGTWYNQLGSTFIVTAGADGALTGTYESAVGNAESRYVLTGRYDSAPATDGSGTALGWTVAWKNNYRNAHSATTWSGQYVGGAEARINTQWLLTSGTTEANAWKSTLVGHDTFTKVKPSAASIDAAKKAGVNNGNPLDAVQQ

streptavidin AF488 = streptavidin AF488 (Streptomyces avidinii, UniProt P22629); assay: Degradation of streptavidin AF488 (FIG. 12); assay type: cell-based
streptavidin AF488, sequence (P22629 25-183): as above
Excerpt: Some studies have been done on other bifunctional molecules comprising an LRP1 binding motif depicted in FIG. 2 and a biotin Target binding motif, wherein these bifunctional molecules also noncovalently bind streptavidin (FIG. 11).

streptavidin, sequence (P22629 25-183, species assumed): as the sequence (P22629 25-183) above

Substance	binding to streptavidin (ELISA) (streptavidin)	delivery / internalization of streptavidin into brain endothelial cells [1]	delivery / internalization of streptavidin into brain endothelial cells ([1]; listed as Angiopep-2-Biotin)	internalization of streptavidin into astrocytes (astrocytes)	level of streptavidin AF647 uptake (streptavidin AF647)	degradation of target protein streptavidin AF488 (streptavidin AF488)
biotinylated Angiopep-2	binds streptavidin	delivers streptavidin AF647 to murine brain endothelial cells	mediated internalization of target protein Streptavidin	mediated internalization of target protein Streptavidin	saturable delivery of streptavidin AF647	
Ac.Ac.Biotin Angiopep-2: Angiopep-2 modified via acetylation and bonded to a biotin Target binding motif						mediated degradation of streptavidin AF488
